In the supplement of paper PMC11316812:
± gives the standard deviation of the averaged measurements.

Legend:
MCF7 = test: percentage of EdU-negative (G0-arrested) nuclei per well, 72 h; higher = more G0 arrest; details: reference: sequence is the full UniProt precursor, the tested protein was the secreted form or ectodomain
hTERT-HMEC = test: as above; details: reference: sequence is the full UniProt precursor, the tested protein was the secreted form or ectodomain
[1] = protein concentration 0.0225 µM
[2] = protein concentration 0.019925 µM
[3] = protein concentration 0.19925 µM
[4] = protein concentration 0.020585 µM
[5] = protein concentration 0.20585 µM
[6] = protein concentration 0.0065 µM
[7] = protein concentration 0.0075 µM
[8] = protein concentration 0.0219975 µM
[9] = protein concentration 0.219975 µM
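Also: secreted proteins added to cultured cells, EdU pulse at the end, nuclei found by Hoechst imaging, EdU status from nuclear versus surrounding ring intensity ratio, PBS as neutral control.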

Sequence | percentage of EdU-negative (MCF7; [1]) | percentage of EdU-negative (MCF7; protein concentration 0.225 µM) | percentage of EdU-negative (hTERT-HMEC; [1]) | percentage of EdU-negative (hTERT-HMEC; protein concentration 0.225 µM) | also measured
MAVFKTTLWRLISGTLGIICLSLMSTLGILLKNSFTKLSIEPAFTPGPNIELQKDSDCCSCQEKWVGYRCNCYFISSEQKTWNESRHLCASQKSSLLQLQNTDELDFMSSSQQFYWIGLSYSEEHTAWLWENGSALSQYLFPSFETFNTKNCIAYNPNGNALDESCEDKNRYICKQQLI | 26.6 ± 3% | 25.3 ± 3.1% | 4.98 ± 0.64% | 5.53 ± 0.17% | –
MAVGKFLLGSLLLLSLQLGQGWGPDARGVPVADGEFSSEQVAKAGGTWLGTHRPLARLRRALSGPCQLWSLTLSVAELGLGYASEEKVIFRYCAGSCPRGARTQHGLALARLQGQGRAHGGPCCRPTRYTDVAFLDDRHRWQRLPQLSAAACGCGG | – | – | – | – | percentage of EdU-negative (MCF7; [2]): 27.7 ± 0.63%; percentage of EdU-negative (MCF7; [3]): 26.7 ± 3.4%; percentage of EdU-negative (hTERT-HMEC; [2]): 5.17 ± 0.068%; percentage of EdU-negative (hTERT-HMEC; [3]): 5.42 ± 0.64%
MAVKKIAIFGATGQTGLTTLAQAVQAGYEVTVLVRDSSRLPSEGPRPAHVVVGDVLQAADVDKTVAGQDAVIVLLGTRNDLSPTTVMSEGARNIVAAMKAHGVDKVVACTSAFLLWDPTKVPPRLQAVTDDHIRMHKVLRESGLKYVAVMPPHIGDQPLTGAYTVTLDGRGPSRVISKHDLGHFMLRCLTTDEYDGHSTYPSHQYQ | 22.7 ± 3% | 23.37 ± 0.19% | 5.08 ± 0.64% | 5.64 ± 0.7% | –
MAVKLGTLLLALALGLAQPASARRKLLVFLLDGFRSDYISDEALESLPGFKEIVSRGVKVDYLTPDFPSLSYPNYYTLMTGRHCEVHQMIGNYMWDPTTNKSFDIGVNKDSLMPLWWNGSEPLWVTLTKAKRKVYMYYWPGCEVEILGVRPTYCLEYKNVPTDINFANAVSDALDSFKSGRADLAAIYHERIDVEGHHYGPASPQRKDALKAVDTVLKYMTKWIQERGLQDRLNVIIFSDHGMTDIFWMDKVIELNKYISLNDLQQVKDRGPVVSLWPAPGKHSEIYNKLSTVEHMTVYEKEAIPSRFYYKKGKFVSPLTLVADEGWFITENREMLPFWMNSTGRREGWQRGWHGYDNELMDMRGIFLAFGPDFKSNFRAAPIRSVDVYNVMCNVVGITPLPNNGSWSRVMCMLKGRASTAPPVWPSHCALALILLFLLA [Q6UWR7] | 25.6 ± 0.4% | 27.791 ± 0.0037% | 4.73 ± 0.19% | 5.87 ± 0.68% | –
MAVRQWVIALALAALLVVDREVPVAAGKLPFSRMPICEHMVESPTCSQMSNLVCGTDGLTYTNECQLCLARIKTKQDIQIMKDGKC | 26.2 ± 1.9% | 25.8 ± 0.45% | 5.06 ± 0.67% | 4.68 ± 0.28% | –
MAVRRDSVWKYCWGVLMVLCRTAISKSIVLEPIYWNSSNSKFLPGQGLVLYPQIGDKLDIICPKVDSKTVGQYEYYKVYMVDKDQADRCTIKKENTPLLNCAKPDQDIKFTIKFQEFSPNLWGLEFQKNKDYYIISTSNGSLEGLDNQEGGVCQTRAMKILMKVGQDASSAGSTRNKDPTRRPELEAGTNGRSSTTSPFVKPNPGSSTDGNSAGHSGNNILGSEVALFAGIASGCIIFIVIIITLVVLLLKYRRRHRKHSPQHTTTLSLSTLATPKRSGNNNGSEPSDIIIPLRTADSVFCPHYEKVSGDYGHPVYIVQEMPPQSPANIYYKV | – | – | – | – | percentage of EdU-negative (MCF7; [4]): 24.9 ± 1.2%; percentage of EdU-negative (MCF7; [5]): 25.5 ± 0.9%; percentage of EdU-negative (hTERT-HMEC; [4]): 4.57 ± 1%; percentage of EdU-negative (hTERT-HMEC; [5]): 6.25 ± 0.37%
MAVVPLLLLGGLWSAVGASSLGVVTCGSVVKLLNTRHNVRLHSHDVRYGSGSGQQSVTGVTSVDDSNSYWRIRGKSATVCERGTPIKCGQPIRLTHVNTGRNLHSHHFTSPLSGNQEVSAFGEEGEGDYLDDWTVLCNGPYWVRDGEVRFKHSSTEVLLSVTGEQYGRPISGQKEVHGMAQPSQNNYWKAMEGIFMKPSELLKAEAHHAEL | – | – | – | – | percentage of EdU-negative (MCF7; [6]): 24.7 ± 0.39%; percentage of EdU-negative (MCF7; protein concentration 0.065 µM): 25.8 ± 1.1%; percentage of EdU-negative (hTERT-HMEC; [6]): 5.43 ± 0.74%; percentage of EdU-negative (hTERT-HMEC; protein concentration 0.065 µM): 7.72 ± 0.45%
MAWASRLGLLLALLLPVVGASTPGTVVRLNKAALSYVSEIGKAPLQRALQVTVPHFLDWSGEALQPTRIRILNVHVPRLHLKFIAGFGVRLLAAANFTFKVFRAPEPLELTLPVELLADTRVTQSSIRTPVVSISACSLFSGHANEFDGSNSTSHALLVLVQKHIKAVLSNKLCLSISNLVQGVNVHLGTLIGLNPVGPESQIRYSMVSVPTVTSDYISLEVNAVLFLLGKPIILPTDATPFVLPRHVGTEGSMATVGLSQQLFDSALLLLQKAGALNLDITGQLRSDDNLLNTSALGRLIPEVARQFPEPMPVVLKVRLGATPVAMLHTNNATLRLQPFVEVLATASNSAFQSLFSLDVVVNLRLQLSVSKVKLQGTTSVLGDVQLTVASSNVGFIDTDQVRTLMGTVFEKPLLDHLNALLAMGIALPGVVNLHYVAPEIFVYEGYVVISSGLFYQS [Q8N4F0] | 25.8 ± 3.4% | 34.57 ± 0.04% | 5.06 ± 0.73% | 15.4 ± 0.54% | –
MAWMLLLILIMVHPGSCALWVSQPPEIRTLEGSSAFLPCSFNASQGRLAIGSVTWFRDEVVPGKEVRNGTPEFRGRLAPLASSRFLHDHQAELHIRDVRGHDASIYVCRVEVLGLGVGTGNGTRLVVEKEHPQLGAGTVLLLRAGFYAVSFLSVAVGSTVYYQGKCLTWKGPRRQLPAVVPAPLPPPCGSSAHLLPPVPGG | 22.75 ± 0.21% | 23.2 ± 1.3% | 4.49 ± 0.81% | 4.92 ± 0.2% | –
MAWPLCTLLLLLATQAVALAWSPQEEDRIIEGGIYDADLNDERVQRALHFVISEYNKATEDEYYRRLLRVLRAREQIVGGVNYFFDIEVGRTICTKSQPNLDTCAFHEQPELQKKQLCSFQIYEVPWEDRMSLVNSRCQEA | 25.7 ± 2.2% | 24 ± 0.52% | 4.46 ± 0.44% | 5.26 ± 0.68% | –
MAWSLGSWLGGCLLVSALGMVPPPENVRMNSVNFKNILQWESPAFAKGNLTFTAQYLSYRIFQDKCMNTTLTECDFSSLSKYGDHTLRVRAEFADEHSDWVNITFCPVDDTIIGPPGMQVEVLADSLHMRFLAPKIENEYETWTMKNVYNSWTYNVQYWKNGTDEKFQITPQYDFEVLRNLEPWTTYCVQVRGFLPDRNKAGEWSEPVCEQTTHDETVPSWMVAVILMASVFMVCLALLGCFALLWCVYKKTKYAFSPRNSLPQHLKEFLGHPHHNTLLFFSFPLSDENDVFDKLSVIAEDSESGKQNPGDSCSLGTPPGQGPQS | – | – | – | – | percentage of EdU-negative (MCF7; protein concentration 0.034 µM): 24.3 ± 0.92%; percentage of EdU-negative (MCF7; protein concentration 0.34 µM): 26.5 ± 1.1%; percentage of EdU-negative (hTERT-HMEC; protein concentration 0.034 µM): 5.95 ± 2.1%; percentage of EdU-negative (hTERT-HMEC; protein concentration 0.34 µM): 7.32 ± 0.51%
MCGPDDRCPARWPGPGRAVKCGKGLAAARPGRVERGGAQRGGAGLELHPLLGGRTWRAARDADGCEALGTVAVPFDDDDKIVGGYTCEENSLPYQVSLNSGSHFCGGSLISEQWVVSAAHCYKTRIQVRLGEHNIKVLEGNEQFINAAKIIRHPKYNRDTLDNDIMLIKLSSPAVINARVSTISLPTTPPAAGTECLISGWGNTLSFGADYPDELKCLDAPVLTQAECKASYPGKITNSMFCVGFLEGGKDSCQRDSGGPVVCNGQLQGVVSWGHGCAWKNRPGVYTKVYNYVDWIKDTIAANS | 25.3 ± 0.83% | 26.6 ± 3.7% | 5.21 ± 0.094% | 7.39 ± 0.7% | –
MCGSALAFFTAAFVCLQNDRRGPASFLWAAWVFSLVLGLGQGEDNRCASSNAASCARCLALGPECGWCVQEDFISGGSRSERCDIVSNLISKGCSVDSIEYPSVHVIIPTENEINTQVTPGEVSIQLRPGAEANFMLKVHPLKKYPVDLYYLVDVSASMHNNIEKLNSVGNDLSRKMAFFSRDFRLGFGSYVDKTVSPYISIHPERIHNQCSDYNLDCMPPHGYIHVLSLTENITEFEKAVHRQKISGNIDTPEGGFDAMLQAAVCESHIGWRKEAKRLLLVMTDQTSHLALDSKLAGIVVPNDGNCHLKNNVYVKSTTMEHPSLGQLSEKLIDNNINVIFAVQGKQFHWYKDLLPLLPGTIAGEIESKAANLNNLVVEAYQKLISEVKVQVENQVQGIYFNITAICPDGSRKPGMEGCRNVTSNDEVLFNVTVTMKKCDVTGGKNYAIIKPIGFNETAKIHIHRNCSCQCEDNRGPKGKCVDETFLDSKCFQCDENKCHFDEDQFSSESCKSHKDQPVCSGRGVCVCGKCSCHKIKLGKVYGKYCEKDDFSCPYHHGNLCAGHGECEAGRCQCFSGWEGDRCQCPSAAAQHCVNSKGQVCSGRGTCVCGRCECTDPRSIGRFCEHCPTCYTACKENWNCMQCLHPHNLSQAILDQCKTSCALMEQQHYVDQTSECFSSPSYLRIFFIIFIVTFLIGLLKVLIIRQVILQWNSNKIKSSSDYRVSASKKDKLILQSVCTRAVTYRREKPEEIKMDISKLNAHETFRCNF | – | – | – | – | percentage of EdU-negative (MCF7; [7]): 28.2 ± 3%; percentage of EdU-negative (MCF7; protein concentration 0.075 µM): 28.3 ± 2.1%; percentage of EdU-negative (hTERT-HMEC; [7]): 4.94 ± 0.66%; percentage of EdU-negative (hTERT-HMEC; protein concentration 0.075 µM): 6.65 ± 1.7%
MCHQQLVISWFSLVFLASPLVAIWELKKDVYVVELDWYPDAPGEMVVLTCDTPEEDGITWTLDQSSEVLGSGKTLTIQVKEFGDAGQYTCHKGGEVLSHSLLLLHKKEDGIWSTDILKDQKEPKNKTFLRCEAKNYSGRFTCWWLTTISTDLTFSVKSSRGSSDPQGVTCGAATLSAERVRGDNKEYEYSVECQEDSACPAAEESLPIEVMVDAVHKLKYENYTSSFFIRDIIKPDPPKNLQLKPLKNSRQVEVSWEYPDTWSTPHSYFSLTFCVQVQGKSKREKKDRVFTDKTSATVICRKNASISVRAQDRYYSSSWSEWASVPCS | – | – | – | – | percentage of EdU-negative (MCF7; [8]): 27.4 ± 2.1%; percentage of EdU-negative (MCF7; [9]): 27.5 ± 0.78%; percentage of EdU-negative (hTERT-HMEC; [8]): 5.23 ± 1.3%; percentage of EdU-negative (hTERT-HMEC; [9]): 7.74 ± 1.1%
